Here are results for 11 molecules from patent US20210196796A1 (SYNTHEKINE, published 2021).

Numbering of substitutions follows the chain as printed. In names and notes the source's numbering stands.

First the molecules themselves.
B1: ΔH16, S_VLKA (ligand)
chain: APTSSSTKKTQLQLSLLVLLKAILNGINNYKNPKLTRMLTFKFYMPKKATELKHLQCLEEELKPLEEVLNLAQSKNFHLRPRDLISNINVIVLELKGSETTFMCEYADETATIVEFLNRWITFCQSIISTLT
B2: Q126S, SQVLKA (ligand)
chain: APTSSSTKKTQLQLSQLLVLLKAILNGINNYKNPKLTRMLTFKFYMPKKATELKHLQCLEEELKPLEEVLNLAQSKNFHLRPRDLISNINVIVLELKGSETTFMCEYADETATIVEFLNRWITFCSSIISTLT
B3: TQVLKA (ligand)
chain: B2 chain with S15T, S126Q
B4: L18F, SQVLKA (ligand)
chain: B2 chain with L18F, S126Q
B5: L18M, SQVLKA (ligand)
chain: B2 chain with L18M, S126Q
B6: SNVLKA (ligand)
chain: B2 chain with Q16N, S126Q
B7: L18E, SQVLKA (ligand)
chain: B2 chain with L18E, S126Q
B8: Q126T, SQVLKA (ligand)
chain: B2 chain with S126T
B9: L18G, SQVLKA (ligand)
chain: B2 chain with L18G, S126Q
B10: T3C, SQVLKA (ligand)
chain: B2 chain with T3C, S126Q
B11: KQVLKA (ligand)
chain: B2 chain with S15K, S126Q
For Relative Proliferation Fold Change 3F8 1:10 in this document: reference of the scale not given here.
For Relative Proliferation Fold Change 3F8 1:2 in this document: reference of the scale not given here.
For Relative Proliferation Fold Change 3F8 1:50 in this document: reference of the scale not given here.
For Relative Proliferation Fold Change NKL 1:10 in this document: reference of the scale not given here.
For Relative Proliferation Fold Change NKL 1:2 in this document: reference of the scale not given here.
For Relative Proliferation Fold Change NKL 1:50 in this document: reference of the scale not given here.

One assay addresses T1, orthogonal hCD122 receptor (hoRb), hCD122 with H133D and Y134F (human, UniProt P14784 27-550).
T1 sequence: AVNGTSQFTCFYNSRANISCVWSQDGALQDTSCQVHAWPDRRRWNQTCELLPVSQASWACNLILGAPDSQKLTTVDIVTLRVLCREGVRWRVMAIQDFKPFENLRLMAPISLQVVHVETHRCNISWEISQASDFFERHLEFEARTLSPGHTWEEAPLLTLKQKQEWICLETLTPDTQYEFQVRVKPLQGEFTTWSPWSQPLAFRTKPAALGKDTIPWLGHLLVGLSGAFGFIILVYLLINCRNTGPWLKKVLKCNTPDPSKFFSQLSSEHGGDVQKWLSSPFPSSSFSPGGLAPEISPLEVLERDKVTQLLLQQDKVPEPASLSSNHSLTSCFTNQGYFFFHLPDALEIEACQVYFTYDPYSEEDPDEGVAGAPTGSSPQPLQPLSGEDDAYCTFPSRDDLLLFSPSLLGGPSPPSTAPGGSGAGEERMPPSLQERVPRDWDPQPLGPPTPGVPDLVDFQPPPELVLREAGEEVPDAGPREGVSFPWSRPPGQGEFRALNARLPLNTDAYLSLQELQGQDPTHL
The assay is described as follows: cell-based or functional assay.
Turning to B1, the “NKL Ortho Proliferation Signal 1:2” value turned out to be 20900, the “NKL Ortho Proliferation Signal 1:10” value was found to be 14200, the “NKL Ortho Proliferation Signal 1:50” value amounted to 9760 and the “Relative Proliferation Fold Change NKL 1:2” value came out at 1.32 fold. For the same molecule, the “Relative Proliferation Fold Change NKL 1:10” value came out at 0.84 fold and the “Relative Proliferation Fold Change NKL 1:50” value stood at 0.62 fold.

As to B2, the “NKL Ortho Proliferation Signal 1:2” value is 9460, the “NKL Ortho Proliferation Signal 1:10” value worked out at 7880, the “NKL Ortho Proliferation Signal 1:50” value turned out to be 6310 and the “Relative Proliferation Fold Change NKL 1:2” value turned out to be 0.71 fold. Also, the “Relative Proliferation Fold Change NKL 1:10” value turned out to be 0.57 fold and the “Relative Proliferation Fold Change NKL 1:50” value is 0.5 fold.

On to B3, for which the “NKL Ortho Proliferation Signal 1:2” value came out at 50400, the “NKL Ortho Proliferation Signal 1:10” value came to 57900, the “NKL Ortho Proliferation Signal 1:50” value amounted to 27800 and the “Relative Proliferation Fold Change NKL 1:2” value is 3.46 fold. Also, the “Relative Proliferation Fold Change NKL 1:10” value came out at 3.31 fold and the “Relative Proliferation Fold Change NKL 1:50” value came out at 1.75 fold.

In the case of B4, the “NKL Ortho Proliferation Signal 1:2” value worked out at 48600, the “NKL Ortho Proliferation Signal 1:10” value was 39400, the “NKL Ortho Proliferation Signal 1:50” value was 19400 and the “Relative Proliferation Fold Change NKL 1:2” value was 3.85 fold. Moreover, the “Relative Proliferation Fold Change NKL 1:10” value came out at 2.52 fold and the “Relative Proliferation Fold Change NKL 1:50” value amounted to 1.3 fold.

Take B5: the “NKL Ortho Proliferation Signal 1:2” value turned out to be 42700, the “NKL Ortho Proliferation Signal 1:10” value came to 43900, the “NKL Ortho Proliferation Signal 1:50” value worked out at 22100 and the “Relative Proliferation Fold Change NKL 1:2” value turned out to be 3.7 fold. The “Relative Proliferation Fold Change NKL 1:10” value stood at 2.72 fold and the “Relative Proliferation Fold Change NKL 1:50” value was found to be 1.55 fold.

On to B6, for which the “NKL Ortho Proliferation Signal 1:2” value was 46800, the “NKL Ortho Proliferation Signal 1:10” value came to 39700, the “NKL Ortho Proliferation Signal 1:50” value was determined as 18300 and the “Relative Proliferation Fold Change NKL 1:2” value came to 2.94 fold. In addition, the “Relative Proliferation Fold Change NKL 1:10” value came out at 2.19 fold and the “Relative Proliferation Fold Change NKL 1:50” value was 1.09 fold.

Turning to B7, the “NKL Ortho Proliferation Signal 1:2” value was 8260, the “NKL Ortho Proliferation Signal 1:10” value stood at 9060, the “NKL Ortho Proliferation Signal 1:50” value is 8120 and the “Relative Proliferation Fold Change NKL 1:2” value was 0.57 fold. The “Relative Proliferation Fold Change NKL 1:10” value turned out to be 0.56 fold and the “Relative Proliferation Fold Change NKL 1:50” value was found to be 0.51 fold.

As for B8, the “NKL Ortho Proliferation Signal 1:2” value was 5980, the “NKL Ortho Proliferation Signal 1:10” value was found to be 6750, the “NKL Ortho Proliferation Signal 1:50” value amounted to 5180 and the “Relative Proliferation Fold Change NKL 1:2” value was found to be 0.44 fold. Further, the “Relative Proliferation Fold Change NKL 1:10” value was 0.47 fold and the “Relative Proliferation Fold Change NKL 1:50” value is 0.41 fold.

As for B9, the “NKL Ortho Proliferation Signal 1:2” value was found to be 15400, the “NKL Ortho Proliferation Signal 1:10” value is 13400, the “NKL Ortho Proliferation Signal 1:50” value was 8640 and the “Relative Proliferation Fold Change NKL 1:2” value turned out to be 1.05 fold. Besides, the “Relative Proliferation Fold Change NKL 1:10” value is 0.83 fold and the “Relative Proliferation Fold Change NKL 1:50” value worked out at 0.57 fold.

Take B10: the “NKL Ortho Proliferation Signal 1:2” value was found to be 60600, the “NKL Ortho Proliferation Signal 1:10” value was 70800, the “NKL Ortho Proliferation Signal 1:50” value came to 35300 and the “Relative Proliferation Fold Change NKL 1:2” value is 4.54 fold. Also, the “Relative Proliferation Fold Change NKL 1:10” value is 4.16 fold and the “Relative Proliferation Fold Change NKL 1:50” value was determined as 2.06 fold.

With B11, the “NKL Ortho Proliferation Signal 1:2” value is 71200, the “NKL Ortho Proliferation Signal 1:10” value was 67600, the “NKL Ortho Proliferation Signal 1:50” value came to 38900 and the “Relative Proliferation Fold Change NKL 1:2” value worked out at 5.12 fold. For the same molecule, the “Relative Proliferation Fold Change NKL 1:10” value was 4.36 fold and the “Relative Proliferation Fold Change NKL 1:50” value turned out to be 2.63 fold.

For another assay, the target named is T1, orthogonal hCD122 receptor (hoRb), …. The assay is described as follows: cell-based or functional assay. This is another data set of the same source.
In the case of B1, the “3F8 Ortho Proliferation Signal 1:2” value was determined as 2360 cts/min, the “3F8 Ortho Proliferation Signal 1:10” value is 4420 cts/min, the “3F8 Ortho Proliferation Signal 1:50” value is 1670 cts/min and the “Relative Proliferation Fold Change 3F8 1:2” value was found to be 3.49 fold. The “Relative Proliferation Fold Change 3F8 1:10” value was 1.68 fold and the “Relative Proliferation Fold Change 3F8 1:50” value was 1.33 fold.

As to B2, the “3F8 Ortho Proliferation Signal 1:2” value came out at 9540 cts/min, the “3F8 Ortho Proliferation Signal 1:10” value is 2870 cts/min, the “3F8 Ortho Proliferation Signal 1:50” value is 826 cts/min and the “Relative Proliferation Fold Change 3F8 1:2” value came to 19.3 fold. In addition, the “Relative Proliferation Fold Change 3F8 1:10” value was determined as 3.69 fold and the “Relative Proliferation Fold Change 3F8 1:50” value is 1.6 fold.

B3: the “3F8 Ortho Proliferation Signal 1:2” value came out at 29100 cts/min, the “3F8 Ortho Proliferation Signal 1:10” value came to 35900 cts/min, the “3F8 Ortho Proliferation Signal 1:50” value was 17000 cts/min and the “Relative Proliferation Fold Change 3F8 1:2” value is 2.6 fold. The “Relative Proliferation Fold Change 3F8 1:10” value stood at 16 fold and the “Relative Proliferation Fold Change 3F8 1:50” value is 8.69 fold.

B4: the “3F8 Ortho Proliferation Signal 1:2” value amounted to 49800 cts/min, the “3F8 Ortho Proliferation Signal 1:10” value amounted to 40800 cts/min, the “3F8 Ortho Proliferation Signal 1:50” value is 30000 cts/min and the “Relative Proliferation Fold Change 3F8 1:2” value worked out at 54.8 fold. Further, the “Relative Proliferation Fold Change 3F8 1:10” value amounted to 16.8 fold and the “Relative Proliferation Fold Change 3F8 1:50” value came out at 11.8 fold.

As to B5, the “3F8 Ortho Proliferation Signal 1:2” value was found to be 42000 cts/min, the “3F8 Ortho Proliferation Signal 1:10” value worked out at 48500 cts/min, the “3F8 Ortho Proliferation Signal 1:50” value is 37200 cts/min and the “Relative Proliferation Fold Change 3F8 1:2” value amounted to 55 fold. Besides, the “Relative Proliferation Fold Change 3F8 1:10” value was found to be 21.9 fold and the “Relative Proliferation Fold Change 3F8 1:50” value was 16.6 fold.

Take B6: the “3F8 Ortho Proliferation Signal 1:2” value was found to be 31400 cts/min, the “3F8 Ortho Proliferation Signal 1:10” value was found to be 32700 cts/min, the “3F8 Ortho Proliferation Signal 1:50” value came to 19000 cts/min and the “Relative Proliferation Fold Change 3F8 1:2” value was 9.2 fold. Besides, the “Relative Proliferation Fold Change 3F8 1:10” value came to 11.8 fold and the “Relative Proliferation Fold Change 3F8 1:50” value amounted to 4.79 fold.

For B7, the “3F8 Ortho Proliferation Signal 1:2” value was 6090 cts/min, the “3F8 Ortho Proliferation Signal 1:10” value amounted to 2350 cts/min, the “3F8 Ortho Proliferation Signal 1:50” value came out at 1980 cts/min and the “Relative Proliferation Fold Change 3F8 1:2” value is 9.99 fold. Moreover, the “Relative Proliferation Fold Change 3F8 1:10” value was 0.93 fold and the “Relative Proliferation Fold Change 3F8 1:50” value stood at 0.77 fold.

Regarding B8, the “3F8 Ortho Proliferation Signal 1:2” value came to 3380 cts/min, the “3F8 Ortho Proliferation Signal 1:10” value amounted to 1880 cts/min, the “3F8 Ortho Proliferation Signal 1:50” value amounted to 1320 cts/min and the “Relative Proliferation Fold Change 3F8 1:2” value turned out to be 0.28 fold. Also, the “Relative Proliferation Fold Change 3F8 1:10” value was 0.54 fold and the “Relative Proliferation Fold Change 3F8 1:50” value amounted to 1.92 fold.

Take B9: the “3F8 Ortho Proliferation Signal 1:2” value came out at 37700 cts/min, the “3F8 Ortho Proliferation Signal 1:10” value worked out at 25900 cts/min, the “3F8 Ortho Proliferation Signal 1:50” value turned out to be 9750 cts/min and the “Relative Proliferation Fold Change 3F8 1:2” value was 52.9 fold. For the same molecule, the “Relative Proliferation Fold Change 3F8 1:10” value was determined as 17 fold and the “Relative Proliferation Fold Change 3F8 1:50” value was found to be 3.79 fold.

Turning to B10, the “3F8 Ortho Proliferation Signal 1:2” value turned out to be 33100 cts/min, the “3F8 Ortho Proliferation Signal 1:10” value was found to be 33700 cts/min, the “3F8 Ortho Proliferation Signal 1:50” value is 14600 cts/min and the “Relative Proliferation Fold Change 3F8 1:2” value stood at 34.9 fold. Also, the “Relative Proliferation Fold Change 3F8 1:10” value worked out at 12.8 fold and the “Relative Proliferation Fold Change 3F8 1:50” value was 12 fold.

As for B11, the “3F8 Ortho Proliferation Signal 1:2” value amounted to 35200 cts/min, the “3F8 Ortho Proliferation Signal 1:10” value came out at 36800 cts/min, the “3F8 Ortho Proliferation Signal 1:50” value stood at 24000 cts/min and the “Relative Proliferation Fold Change 3F8 1:2” value came out at 4.86 fold. Besides, the “Relative Proliferation Fold Change 3F8 1:10” value amounted to 3.88 fold and the “Relative Proliferation Fold Change 3F8 1:50” value was 23 fold.
